B1: 24C9 (antibody, V domains shown)
VH: EVQLVESGGGLVKPGGSLRLSCAASGFTFSTYSMNWVRQAPGKGLEWVSFISGRSSYIYYADSVKGRFTISRDNAKNSLYLQMNSLRAEDTAVYYCSKDDWFEELWGQGTLVTVSS
VL: DIQMTQSPSSLSASVGDRVTITCRASQGIRNDLGWYQQKPGKAPKRLIYATFSLQSGVPSRFSGSGSGTEFTLTISSLQPEDFATYYCLQHNRYPWTFGQGTKVEIK
B2: 31E11 (antibody, V domains shown)
VH: QVQLVESGGGLVKPGGSLRLSCAASGFTFSDYYMSWIRQAPGKGLEWVSYISISGSTIYYADSVKGRFTISRDNAKNSLYLQMNSLRAEDTAVYYCARDDFWSGYYFNWFDPWGQGTLVTVSS
VL: DIQMTQSPSSLSASVGDRVTITCRANQTISTFLNWYQQNPGKAPKLLIYAASSLQSGVPSRFSGSGSGTDFTLTISSLQPEDFATYYCQQTYIIPLTFGGGTKVEIK
B3: 33E1 (antibody, V domains shown)
VH: QVQLQESGPGLVKPSQTLSLTCTVSGGSISSGDHYWSWIRQHPGKGLEWIGHIYYSGSTDYNPSLKSRVTISVDTSKNHFSLKLNSVTAADTAVYYCARTNSSSWSDWYFDLWGRGTLVTVSS
VL: DIVMTQSPDSLAVSLGERATINCKSSQSILYSSNNKNYLAWYQRKPGQPPILLIHWASTRESGVPDRFSGSGSRTDFTLTISSLQAEDVAVYYCQQYFITPWTFGQGTKVEIK

Tests used:
Assay in all cases: cell-based or functional assay
KDR [1] = biological target: T1, KDR (human, UniProt P35968 20-1356)
T1 sequence (P35968 20-1356): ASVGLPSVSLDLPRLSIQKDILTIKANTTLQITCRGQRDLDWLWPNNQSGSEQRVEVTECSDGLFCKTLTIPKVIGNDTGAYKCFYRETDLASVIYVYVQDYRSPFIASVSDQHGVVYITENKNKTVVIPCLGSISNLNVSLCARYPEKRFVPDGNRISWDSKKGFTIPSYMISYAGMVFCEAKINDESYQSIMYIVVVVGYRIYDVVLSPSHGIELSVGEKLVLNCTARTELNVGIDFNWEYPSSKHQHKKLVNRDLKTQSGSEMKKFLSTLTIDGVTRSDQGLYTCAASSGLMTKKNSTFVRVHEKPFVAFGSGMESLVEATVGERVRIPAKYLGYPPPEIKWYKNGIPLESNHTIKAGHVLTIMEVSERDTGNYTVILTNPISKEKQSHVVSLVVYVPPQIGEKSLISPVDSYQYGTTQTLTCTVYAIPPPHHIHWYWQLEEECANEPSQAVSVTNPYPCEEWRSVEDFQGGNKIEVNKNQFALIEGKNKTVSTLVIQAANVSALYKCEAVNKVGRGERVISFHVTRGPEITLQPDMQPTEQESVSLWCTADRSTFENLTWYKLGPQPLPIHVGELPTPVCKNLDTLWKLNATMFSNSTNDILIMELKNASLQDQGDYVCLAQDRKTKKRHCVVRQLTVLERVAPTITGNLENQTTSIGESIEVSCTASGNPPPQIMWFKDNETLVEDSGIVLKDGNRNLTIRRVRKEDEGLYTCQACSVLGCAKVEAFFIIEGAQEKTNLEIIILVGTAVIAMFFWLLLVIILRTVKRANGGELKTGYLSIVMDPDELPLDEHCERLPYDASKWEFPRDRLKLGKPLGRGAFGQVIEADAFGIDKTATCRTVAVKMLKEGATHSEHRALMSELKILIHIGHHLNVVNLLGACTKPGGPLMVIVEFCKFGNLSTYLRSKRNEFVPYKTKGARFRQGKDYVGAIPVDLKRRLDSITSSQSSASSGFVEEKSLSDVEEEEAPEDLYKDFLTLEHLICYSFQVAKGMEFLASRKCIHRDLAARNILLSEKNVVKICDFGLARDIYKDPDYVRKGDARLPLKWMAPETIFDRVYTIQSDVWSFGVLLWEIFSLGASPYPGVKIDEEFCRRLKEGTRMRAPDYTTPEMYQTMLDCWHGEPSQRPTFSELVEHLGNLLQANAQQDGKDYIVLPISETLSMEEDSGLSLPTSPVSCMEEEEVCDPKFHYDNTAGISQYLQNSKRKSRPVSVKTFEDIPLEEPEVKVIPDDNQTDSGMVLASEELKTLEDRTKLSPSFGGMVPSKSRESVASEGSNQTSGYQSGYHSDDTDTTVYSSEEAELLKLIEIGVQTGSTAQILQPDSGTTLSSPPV

KDR [2] = biological target: T1, KDR; remark: listed apart in the source
KDR [3] = biological target: T1, KDR; remark: listed apart in the source
KDR [4] = biological target: T1, KDR; remark: listed apart in the source
KDR [5] = biological target: T1, KDR; remark: listed apart in the source

Binder | Activity at 133 nM (% Inhibition), 1-hour Pre-incubation at 4° C., Average (KDR [1]) [%] | Activity at 133 nM (% Inhibition), 1-hour Pre-incubation at 4° C., N = 1 (KDR [1]) [%] | Activity at 133 nM Antibody Concentration (% Survival Inhibition), Average (KDR [2]) [%] | Activity at 133 nM Antibody Concentration (% Survival Inhibition), N = 1 (KDR [2]) [%] | % of Max VEGF KDR pTyr Activity (at 133 nM antibody concentration), Average (KDR [3]) [%] | % of Max VEGF KDR pTyr Activity (at 133 nM antibody concentration), N = 1 (KDR [3]) [%] | % Inhibition of VEGF165-mediated 6-keto Prostaglandin F1α release at 133 nM Antibody Concentration, Average (KDR [4]) [%] | % Inhibition of VEGF165-mediated 6-keto Prostaglandin F1α release at 133 nM Antibody Concentration, N = 1 (KDR [4]) [%] | Activity at 133 nM (% Inhibition), 24-hour Pre-incubation at 37° C., Average (KDR [5]) [%] | Activity at 133 nM (% Inhibition), 24-hour Pre-incubation at 37° C., N = 1 (KDR [5]) [%] | Activity at 133 nM (% Inhibition), 1-hour Pre-incubation at 4° C., N = 2 (KDR [1]) [%] | Activity at 133 nM Antibody Concentration (% Survival Inhibition), N = 2 (KDR [2]) [%] | % of Max VEGF KDR pTyr Activity (at 133 nM antibody concentration), N = 2 (KDR [3]) [%] | % Inhibition of VEGF165-mediated 6-keto Prostaglandin F1α release at 133 nM Antibody Concentration, N = 2 (KDR [4]) [%] | Activity at 133 nM (% Inhibition), 24-hour Pre-incubation at 37° C., N = 2 (KDR [5]) [%]
B1 | 81 | 81 | 57 | 57 | 13 | 13 | 91 | 91 | 46 | 46 | – | – | – | – | –
B2 | 81 | 82 | 89 | 83 | 5 | 4 | 114 | 130 | 69 | 90 | 80 | 95 | 6 | 98 | 48
B3 | 77 | 78 | 92 | 86 | 8 | 5 | 113 | 128 | 77 | 85 | 75 | 97 | 10 | 98 | 68

— patent US20100260765A1 (AstraZeneca / MedImmune, published 2010)
